From patent US20190382493A1 (published 2019)
Where a chain is given by its changes, count along the chain named. Where two headings read alike, the source gives them in different places. Each block holds one binder with its values, some of them ahead of it.

How the values were obtained:
[1] = target: T1, mouse PDL1-Fc (R & D Systems) (mouse, UniProt Q9EP73 19-238); assay: ELISA
[2] = target: T2, cynomolgus monkey (cyno) PDL1-Fc (Sino biological) (cynomolgus monkey, UniProt G7PSE7 19-239); assay: ELISA
[3] = target: T3, human PDL1-Fc (R & D Systems) (human, UniProt Q9NZQ7 19-239); assay: ELISA
[4] = target: T4, human PDL1 (R&D Systems) (human, UniProt Q9NZQ7 19-239); assay: ELISA blocking of human PD-1 binding to PDL1; hPD-1 blockade
[5] = target: T5, cyno PDL1 (adsorbed in blockade assays) (cynomolgus monkey, UniProt G7PSE7 19-239); assay: ELISA blocking of cyno B7-1 binding to PDL1; cyno B7-1 blockade
[6] = target: T4, human PDL1 (R&D Systems); assay: ELISA blocking of human B7-1 binding to PDL1; hB7-1 blockade
[7] = target: T1, mouse PDL1-Fc (R & D Systems); assay: ELISA; remark: listed apart in the source
[8] = target: T2, cynomolgus monkey (cyno) PDL1-Fc (Sino …); assay: ELISA; remark: listed apart in the source
[9] = target: T3, human PDL1-Fc (R & D Systems); assay: ELISA; remark: listed apart in the source
[10] = target: T5, cyno PDL1 (adsorbed in blockade assays); assay: ELISA blocking of cyno PD-1 binding to PDL1; cyno PD1 blockade

T1 sequence (Q9EP73 19-238): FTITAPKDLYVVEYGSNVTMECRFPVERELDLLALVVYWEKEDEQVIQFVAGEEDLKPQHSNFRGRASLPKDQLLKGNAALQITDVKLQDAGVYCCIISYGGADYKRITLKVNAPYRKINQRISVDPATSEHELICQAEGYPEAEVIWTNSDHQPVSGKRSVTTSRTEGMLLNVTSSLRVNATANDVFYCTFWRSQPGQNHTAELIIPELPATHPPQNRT
T2 sequence (G7PSE7 entry or part of it): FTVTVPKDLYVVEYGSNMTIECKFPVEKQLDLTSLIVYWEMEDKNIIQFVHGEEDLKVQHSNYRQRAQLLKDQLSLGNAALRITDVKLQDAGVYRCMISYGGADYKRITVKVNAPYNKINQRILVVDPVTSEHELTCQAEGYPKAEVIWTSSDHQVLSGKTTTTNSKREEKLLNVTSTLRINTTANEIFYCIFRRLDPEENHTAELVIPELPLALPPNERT
T5 sequence (G7PSE7 entry or part of it): as above
T4 sequence (Q9NZQ7 19-239): as the sequence (G7PSE7 entry or part of it) above, with T33A, S34A, N62S, Q68R, R82Q, L173F, A185T, I192T, L215H counted along it
T3 sequence (Q9NZQ7 19-239): as the sequence (G7PSE7 entry or part of it) above, with T33A, S34A, N62S, Q68R, R82Q, L173F, A185T, I192T, L215H counted along it

Kd [1]: 0.464 nM
Kd [2]: 0.544 nM
Kd [3]: 0.272 nM
IC50 [4]: 0.7 nM
IC50 [5]: 0.1 nM
IC50 [6]: 0.5 nM
B1: anti-PDL1 antibody C5H9v2 (antibody, V domains shown)
VH: EVQLLESGGGLVQPGGSLRLSCAASGFTFSSYAMSWVRQAPGKGLEWVSSIWRNGIVTVYADSVKGRFTISRDNSKNTLYLQMNSLRAEDTAVYYCAKWSAAFDYWGQGTLVTVSS
VL: DIQMTQSPSSLSASVGDRVTITCRASQSISSYLNWYQQKPGKAPKLLIYAASSLQSGVPSRFSGSGSGTDFTLTISSLQPEDFATYYCQQDNGYPSTFGGGTKVEIKR

Kd [1]: 0.475 nM
Kd [2]: 0.398 nM
Kd [3]: 0.286 nM
B2: anti-PDL1 antibody C5H9 (antibody, V domains shown)
VH: B1 VH
VL: B1 VL with A50Y, S53T, G100Q

Kd [7]: 0.666 nM
Kd [8]: 0.399 nM
Kd [9]: 0.515 nM
B3: C5H9 mIgG2a (antibody, V domains shown)
VH: B1 VH
VL: B1 VL with A50Y, S53T, G100Q

IC50 [4]: 39.8 nM
IC50 [5]: 9.6 nM
IC50 [6]: 11.7 nM
IC50 [10]: 7 nM
B4: anti-PDL1 activatable antibody PL07-2001-C5H9v2 (antibody)
VH: B1 VH
VL: QGQSGSGIALCPSHFCQLPQTGGGSSGGSGGSGGISSGLLSGRSDNHGGSDIQMTQSPSSLSASVGDRVTITCRASQSISSYLNWYQQKPGKAPKLLIYAASSLQSGVPSRFSGSGSGTDFTLTISSLQPEDFATYYCQQDNGYPSTFGGGTKVEIKR
